From publication PMC11500311, “Binding of a single nitric oxide molecule is sufficient to disrupt DNA binding of the nitrosative stress regulator NsrR†” (Chemical Science, 2024) come the findings set out here.

Series [1] deals with the molecule itself. Briefly: native MS; as-isolated and reconstituted NsrR, 8 μM [4Fe–4S], ionised from 100 mM ammonium acetate pH 8.0, positive-mode ESI, no DNA.
Series [2] has as its target T1, holo NsrR ([4Fe-4S] in each subunit) (Streptomyces coelicolor, UniProt Q9L132 1-148).
T1 sequence: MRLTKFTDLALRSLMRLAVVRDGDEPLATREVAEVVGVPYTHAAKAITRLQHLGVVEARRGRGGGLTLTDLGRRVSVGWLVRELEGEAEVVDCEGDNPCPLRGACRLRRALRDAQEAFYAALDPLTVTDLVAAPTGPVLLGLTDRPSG
Briefly: native MS; 100 mM ammonium acetate pH 8; relative affinity; SPR: 10 mM HEPES, 150 mM NaCl, 0.05% polysorbate 20, pH 7.4, 25 C, anaerobic; native MS: 100 mM ammonium acetate pH 8 (30 C for nitrosylation). The settings on record: protein: recombinant; tags: none; chain copies: 2; blunt.

Series [3] addresses T1, holo NsrR ([4Fe-4S] in each subunit). Briefly: native MS; about equal free and DNA-bound holo NsrR before NO; SPR: 10 mM HEPES, 150 mM NaCl, 0.05% polysorbate 20, pH 7.4, 25 C, anaerobic; native MS: 100 mM ammonium acetate pH 8 (30 C for nitrosylation). The settings on record: protein: recombinant; tags: none; chain copies: 2; blunt.

B1: NsrR from Streptomyces coelicolor, non-tagged (natural protein)
chain: MRLTKFTDLALRSLMRLAVVRDGDEPLATREVAEVVGVPYTHAAKAITRLQHLGVVEARRGRGGGLTLTDLGRRVSVGWLVRELEGEAEVVDCEGDNPCPLRGACRLRRALRDAQEAFYAALDPLTVTDLVAAPTGPVLLGLTDRPSG
notes: NsrR, Rrf2-family transcriptional regulator of Streptomyces coelicolor A3, locus SCO7427; non-tagged construct from pNsrR; Homodimer; Each subunit can carry a [4Fe–4S] cluster: two clusters per dimer is holo, one is hemi-apo, none is apo; All three forms were observed as dimers by native MS (32 608, 32 257 and 31 907 Da); also called non-tagged NsrR; [4Fe–4S]; NsrR; source: E. coli BL21 λDE3 …
B1: the “stoichiometry N” value in series [1] was found to be 2.

B2: hmpA1 22 bp native MS (dsDNA)
DNA 1: AACACGAATATCATCTACCAAT
DNA 2: ATTGGTAGATGATATTCGTGTT
Take B2: the Kd in series [2] turned out to be 3 ± 0.1 µM.

B3: hmpA2 23 bp native MS (dsDNA)
DNA 1: AACAAGCATCTGAGATCCCAGTT
DNA 2: AACTGGGATCTCAGATGCTTGTT
For the molecule B3, in series [3], the binding result is recorded as “binds”.

One may read the stoichiometry N as a count of units in the complex or per binding partner. By Kd is commonly meant a measure of binding affinity in units of concentration.
